B1: HDV Ribozyme (parent)
chain: GGCCGGCAUGGUCCCAGCCUCCUCGCUGGCGCCGGCUGGGCAACAUUCCGAGGGGACCGUCCCCUCGGUAAUGGCGAAUGGGACCCA

Variants of: B1
Test: self-cleavage, relative activity (ratio to wild type); higher = more cleavage; co-transcriptional

Variant | self-cleavage
C13G A16C | 0.0554
G28U U47A | 0.111
G25A G40A | 0.317
G74U G76A | 0.453
G52C C57U | 0.991
A70G A87C | 0.883
C15G G76A | 0.665
C14G C64U | 0.516
C4G G6U | 0.0237
G68A A70C | 0.707
A16G U27C | 0.675
G1A C64A | 0.131
A45U A51G | 0.965
C30G G68A | 0.126
G29A C44G | 0.151
G1U A87C | 0.408
C75G A87G | 0.108
C7A U72G | 0
A42C G73U | 0.0791
G39C G81C | 0.089
G67A G76C | 0.926
C14U A45C | 0.646
C3A C19U | 0.0134
G2U G80A | 0.0496

Variant | self-cleavage
C33G G55A | 0.218
G53A U69C | 1.11
G1U A43C | 0.425
G68U U69G | 0.773
C30U U72A | 0.277
A8C A71U | 0.427
U46C U72C | 0.684
U23C U69C | 0.886
G59C U60G | 1.16
G5C G53U | 0.291
C62A C64U | 0.892
C15G G31C | 0.178
G6U C33U | 0.217
A16C | 0.838
U47A G67U | 1.14
C22U G31C | 0
C30A G76A | 0.585
A42C G50C | 0.375
C13G G54A | 0.0604
C48G G73A | 0.623
C41A U79G | 0.858
A16G U37A | 0.115
G81A A83G | 0.236
G29C G38A | 0

Variant | self-cleavage
C33A A56C | 0.339
G50A U79G | 0.629
G39C G74C | 0.166
G11C U12G | 0.123
C48A C86U | 0.923
C41A A87C | 1
C22A C85G | 0.219
U72A G82C | 0.208
C36G G40U | 0.108
G10A G31C | 0.198
G73A A83U | 0.323
G17U C24U | 0.146
G74A U79G | 0.356
U37C U65A | 0.929
C18A A51G | 0.0554
C3A A77C | 0.171
C57G A77G | 1.05
C13U G25U | 0
U20G G38A | 0.0573
U12G C62A | 1.06
C15G G55C | 0.582
G10C U46A | 0.525
U27C C64U | 0.895
G6A G50A | 0.785

Variant | self-cleavage
C41G G55A | 0.911
G67C C85G | 0.96
C24U U69A | 0.617
G29A G80C | 0.145
G34U G67U | 0.231
C15G G38C | 0.0639
G54U G73U | 0.364
C14U U79A | 1.02
G28C A70G | 0
C33U C58G | 0.929
G5C A83C | 0
A42G G59C | 0.703
C24A A42G | 0.166
C22A C61G | 0.323
G25C C58U | 0.0739
A16G G34C | 0.0536
C13G A51G | 0.123
G31U G80U | 0.0675
G11A U20A | 0.0623
G5U G17A | 0.189
G52U C58U | 0.898
A16C G35C | 0.175
U12G C48U | 1.2
A45G C75G | 0.0536

Variant | self-cleavage
C24G G59C | 0.0923
G54A C66U | 0.933
G29U G39A | 0
G39C U79G | 0.196
A16C C41G | 0.104
G50U A56C | 1.18
C14U C48A | 0.928
C4U G28A | 0.0845
G35A U47G | 0.443
G5C G55U | 0.17
U12C C15U | 0.147
G2U A83U | 0.0536
G17A G39A | 0.095
G52U G53C | 0.672
U20C C44U | 0
C21U G35A | 0.108
G17A G53C | 0.831
G2C C36A | 0.138
U23C C26A | 1.11
G10A U37C | 0.695
C44U G73U | 0.172
U65G G81U | 0.248
C58G C86U | 1.25
C44G C86G | 0.499

Variant | self-cleavage
G10C C41G | 0.437
U23A A45U | 0.727
C21A G35A | 0.0804
U12A C30A | 0.0652
U9A G68A | 0.955
G25U U37G | 0.0489
G28A G54A | 0.0811
G10A U46A | 0.506
C19G A42C | 0.0978
G11U A78C | 0.02
U60G C85A | 0.767
G25A G80U | 0.0923
G34U G50C | 0.0906
G74A G80A | 0.182
U27A C58A | 0.997
C26G G81C | 0.499
G2U C15U | 0
C33U U60G | 0.935
G10U U47A | 0.514
U20A G38U | 0.122
G6U A70U | 0.46
G10A U69A | 0.677
G11C C18U | 0.0992
A16C U47C | 0.95

Variant | self-cleavage
G11U G52C | 0.218
U20C C75U | 0
U27C G38A | 0.0978
G25C A43C | 0.0554
G11C G25C | 0.0475
C7G C84G | 0.0665
C14A A51G | 0.755
C48U A78U | 0.298
A16G C49U | 1.23
U12G U65G | 0.962
G31U A87C | 0.358
C21G A42U | 0.0437
G35C G81A | 0.0332
G2A A8G | 0.0773
G67C A83U | 0.469
G55U C75G | 0.0707
U37G C41G | 0.332
U9G U27G | 0.935
C18G C24G | 0.0504
U27A G80C | 0.469
G11A G76A | 0.578
G38C G39U | 0.0396
G1C C75U | 0.227
